Data on two substances can be found in patent publication US8287888B2, “Thermosensitive polyphosphazene-bioactive molecule conjugates, preparation method thereof and use thereof” (Korea Institute of Science and Technology, priority 2006, dated 2012).

The test system of series [1] is human breast adenocarcinoma (MCF-7). The series is described as follows: Anti-cancer activity in vitro, MTT. Type of series: cell-based. How it is done:
(§1) In order to find out anticancer activity in vitro of the poly(organophosphazene) conjugated with anti-cancer drug of the present invention, the trial as follows was performed about the human breast adenocarcinoma (MCF-7, the Korea Cell Line Bank) and the human cervix adenocarcinoma (Hela, the Korea Cell Line Bank).
(§2) For the in vitro cell experiment, in order to measure the genesistasis concentration to 50% (IC50) toward the cancer cell of the poly(organophosphazene) conjugated with anticancer drug, the analytical method using 3-(4,5-dimethylthiazol-2-yl)-2,5-diphenyl-2H-tetrazolium bromide (MTT) was performed [T. Mosmann, J. Immunol. Method, 65, (1985) 55].
(§3) The materials for to measuring were respectively melted in the DMSO (dimethylsulfoxide) of the small amount, and they were diluted to the distilled water with 200 times. The materials solution were added to the cancer cell that is MCF-7(the Korea Cell Line Bank) and Hela (the Korea Cell Line Bank). Then, they were added to 96-well microtiter plater to 1.0×10^4 cell/ml (the concentration of the cancer cell). And they were cultivated for 2, 3, 4 days, respectively, with 37° C. in 5% CO2 condition.
(§4) MTT solution (20 μl) was mixed the cultivated cell with, and they were more cultivated for 4 hours with 37° C. in 5% CO2 condition. After the upper culture medium of each cell was removed, DMSO (100 μl) was added to a well and they were shaken in the room temperature to the plate shaker with for 20 minutes, thereby dissolving the formazan crystal generated by reducing of MTT.

Series [2] has as its system human cervix adenocarcinoma (Hela). Put plainly: Anti-cancer activity in vitro, MTT. Format: cell-based. How it is done: as §1, §2, §3, §4
Series [3] can be described thus: Sol-gel phase transition with change of temperature (Brookfield rheometer). Format: physicochemical. Particulars: for Gel solidity (maximum viscosity of the polymer solution) / Max. gelling temp. (temperature where the viscosity of the polymer solution reaches the maximum point): 10 wt % in phosphate buffered saline (pH 7.4); for viscosity in 37° C.: compared among Examples 3, 4 and 9. How it is done: The poly(organophosphazene) conjugated with a drug or bioactivemolecules obtained in Examples 1 to 11 were respectively dissolved in phosphate buffered saline (pH 7.4) at 4° C. so as to make solutions with concentrations of 10 wt %. The solutions were put into a chamber of a Brookfield DV-III+ Rheometer equipped with a thermostatic bath (TC-501).

A short description of series [4]: Hydrolysis of the polymer with time by GPC molecular weight. Format: physicochemical. Particulars: 10 wt % in PBS pH 7.4, 37° C., compared among Examples 3, 4 and 9.

Consider “poly[(isoleucineethylester)(aminomethoxypolyethyleneglycol 550)(glycylglycine)(glycylglycyldoxorubicin)phosphazene] [Example 3]”, for which the “Anti-cancer activity [IC50]” value in series [1] (MCF-7, 2nd day) came to 2.294 µg/mL; in series [1] (MCF-7, 3rd day) it was 0.926 µg/mL; in series [1] (MCF-7, 4th day), 0.798 µg/mL; in series [2] (2nd day), 1.477 µg/mL; in series [2] (3rd day), 1.065 µg/mL; in series [2] (4th day) it was 0.605 µg/mL. For the same substance, the “Gel solidity (maximum viscosity of the polymer solution)” value in series [3] worked out at 158 Pa · s. The “Max. gelling temp. (temperature where the viscosity of the polymer solution reaches the maximum point)” value in series [3] stood at 38 °C. Further, in series [3], the “viscosity in 37° C.” value is “the highest viscosity”. The “speed of hydrolysis (reduced molecular weight by GPC)” value in series [4] is “the most slowly hydrolyzed”.

Take “poly[(isoleucineethylester)(aminomethoxypolyethyleneglycol 550)(glycylglycine)(glycylglycylglycmethylester)(glycylglycylglycin-arginine-glycin-asparagine-cerinicacidpeptied)phosphazene] [Example 9]”: in series [3], the “Gel solidity (maximum viscosity of the polymer solution)” value is given as 130 Pa · s, the “Max. gelling temp. (temperature where the viscosity of the polymer solution reaches the maximum point)” value was 46 °C and the “viscosity in 37° C.” value was “the lowest viscosity”. In addition, in series [4], the “speed of hydrolysis (reduced molecular weight by GPC)” value was “the most quickly hydrolyzed”.
